The assay has as its target T1, G93A-hSOD1-CFP (human, UniProt P00441 2-154, G93A).
T1 construct: Transiently expressed in NSC-34 cells; FRET donor; also called G93A SOD1-CFP; pECFP-G93A-hSOD1; not shown: CFP (from pECFP plasmid) attached to the C-terminus of SOD1
Nature of the assay: FACS sorting of cells without G93A SOD1-CFP/MDH1-YFP FRET after transfection of the myc-tagged MDH1 peptide library.

T1 sequence (P00441 2-154 G94A): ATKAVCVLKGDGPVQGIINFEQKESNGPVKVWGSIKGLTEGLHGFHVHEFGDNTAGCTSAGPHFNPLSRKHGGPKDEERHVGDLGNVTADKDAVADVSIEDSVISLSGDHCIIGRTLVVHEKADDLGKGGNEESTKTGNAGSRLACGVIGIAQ

B1: myc-tagged peptide 14-27 of cytMDH (peptide)
peptide: GQIAHSLLYSIGNG
notes: Expressed from a plasmid inside NSC-34 cells; also called myc-tagged 14-27 peptide; not shown: human myc tag in frame with the peptide
Consider B1, for which the binding result is given as “binds”.

B2: myc-tagged peptide 217-239 of cytMDH (peptide)
peptide: SWLKGEFITTVQQRGAAVIKARK
notes: Expressed from a plasmid inside NSC-34 cells; not shown: human myc tag in frame with the peptide
B2: the binding result was “binds”.
